Source: article PMC9482650, “Quantitative fragmentomics allow affinity mapping of interactomes” (Nature Communications, 2022)
One block for each binder: values may come before it.

Tests used:
Assay in all cases: holdup assay
Parameters in all cases: key: below the threshold = too weak to quantify, mostly under pKd 3.1 to 4
APBA1_1, Q02410 = target: T1, APBA1_1, Q02410
T1 sequence (Q02410 651-752, limits assumed, looked up): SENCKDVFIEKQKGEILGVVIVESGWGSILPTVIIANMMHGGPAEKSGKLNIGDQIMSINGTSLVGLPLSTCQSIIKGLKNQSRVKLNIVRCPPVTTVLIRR

APBA2_2, Q99767 = target: T2, APBA2_2, Q99767
T2 sequence (Q99767 654-744, limits assumed, looked up): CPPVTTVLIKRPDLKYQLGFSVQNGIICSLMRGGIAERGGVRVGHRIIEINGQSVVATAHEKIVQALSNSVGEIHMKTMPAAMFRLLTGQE

DFNB31_2, Q9P202 = target: T3, DFNB31_2, Q9P202
T3 sequence (Q9P202 274-371, limits assumed, looked up): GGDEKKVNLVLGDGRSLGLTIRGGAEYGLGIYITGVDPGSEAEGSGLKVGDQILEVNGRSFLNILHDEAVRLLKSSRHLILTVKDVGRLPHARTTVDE

DFNB31_3, Q9P202 = target: T4, DFNB31_3, Q9P202
T4 sequence (Q9P202 811-907, limits assumed, looked up): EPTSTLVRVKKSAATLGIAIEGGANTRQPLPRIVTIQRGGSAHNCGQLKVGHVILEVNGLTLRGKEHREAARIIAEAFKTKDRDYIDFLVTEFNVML

DLG2_2, Q15700 = settings: plain residues with an end cap or a label only (N-terminal biotin on a linker: ttds)
DLG3_1, Q92796 = target: T5, DLG3_1, Q92796
T5 sequence (Q92796 125-227, limits assumed, looked up): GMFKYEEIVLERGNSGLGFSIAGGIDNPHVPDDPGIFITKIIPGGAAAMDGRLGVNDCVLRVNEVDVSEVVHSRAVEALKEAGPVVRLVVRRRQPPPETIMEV

FRMPD1, Q5SYB0 = target: T6, FRMPD1, Q5SYB0
T6 sequence (Q5SYB0 52-145, limits assumed, looked up): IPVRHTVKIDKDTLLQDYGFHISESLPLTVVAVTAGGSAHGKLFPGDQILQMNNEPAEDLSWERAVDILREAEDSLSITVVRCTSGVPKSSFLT

FRMPD4, Q14CM0 = target: FRMPD4, Q14CM0
GORASP2, Q9H8Y8 = target: GORASP2, Q9H8Y8
GRASP, Q7Z6J2 = settings: plain residues with an end cap or a label only (N-terminal biotin on a linker: ttds)
GRIP2_7, Q9C0E4 = target: GRIP2_7, Q9C0E4
HTRA1, Q92743 = settings: plain residues with an end cap or a label only (N-terminal biotin on a linker: ttds)
HTRA4, P83105 = target: T7, HTRA4, P83105
T7 sequence (P83105 378-476, limits assumed, looked up): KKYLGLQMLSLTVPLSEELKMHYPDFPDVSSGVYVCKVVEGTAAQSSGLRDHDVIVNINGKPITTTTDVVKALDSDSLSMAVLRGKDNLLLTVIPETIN

IL16_3, Q14005 = target: IL16_3, Q14005
LIN7A, O14910 = target: T8, LIN7A, O14910
T8 sequence (O14910 103-200, limits assumed, looked up): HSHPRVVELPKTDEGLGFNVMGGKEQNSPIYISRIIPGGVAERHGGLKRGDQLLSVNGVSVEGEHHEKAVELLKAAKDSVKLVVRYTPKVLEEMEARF

LNX1_2, Q8TBB1 = target: LNX1_2, Q8TBB1
MAGI1_1, Q96QZ7 = target: MAGI1_1, Q96QZ7
MAGI2_4, Q86UL8 = target: MAGI2_4, Q86UL8
MAGI2_6, Q86UL8 = settings: plain residues with an end cap or a label only (N-terminal biotin on a linker: ttds)
MAST2, Q6P0Q8 = target: MAST2, Q6P0Q8
MPP2, Q14168 = target: T9, MPP2, Q14168
T9 sequence (Q14168 180-250, limits assumed, looked up): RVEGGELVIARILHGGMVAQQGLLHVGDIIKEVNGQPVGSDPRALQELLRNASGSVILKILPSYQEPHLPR

PARD3B_1, Q8TEW8 = target: T10, PARD3B_1, Q8TEW8
T10 sequence (Q8TEW8 196-299, limits assumed, looked up): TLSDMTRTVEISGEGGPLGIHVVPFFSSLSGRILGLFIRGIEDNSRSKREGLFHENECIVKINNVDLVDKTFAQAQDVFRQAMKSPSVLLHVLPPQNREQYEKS

SCRIB_1, Q14160 = target: SCRIB_1, Q14160
SNTA1, Q13424 = target: T11, SNTA1, Q13424
T11 sequence (Q13424 82-180, limits assumed, looked up): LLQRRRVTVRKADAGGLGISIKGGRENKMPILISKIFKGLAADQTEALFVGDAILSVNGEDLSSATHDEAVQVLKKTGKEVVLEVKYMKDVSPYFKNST

GRIP1_2, Q9Y3R0 = target: T12, GRIP1_2, Q9Y3R0
T12 sequence (Q9Y3R0 145-248, limits assumed, looked up): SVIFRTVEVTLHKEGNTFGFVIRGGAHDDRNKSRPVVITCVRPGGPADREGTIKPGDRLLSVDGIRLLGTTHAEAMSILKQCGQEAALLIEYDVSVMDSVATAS

[1] = plain residues with an end cap or a label only (N-terminal biotin on a linker: ttds)
[2] = plain residues with an end cap or a label only (N-terminal biotin on a linker: ahx)

Chain of MAGI1_1, Q96QZ7 (Q96QZ7 1-106): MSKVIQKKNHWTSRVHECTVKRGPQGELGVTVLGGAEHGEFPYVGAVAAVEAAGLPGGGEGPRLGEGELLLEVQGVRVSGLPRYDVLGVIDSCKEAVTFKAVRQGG
Chain of IL16_3, Q14005 (Q14005 1107-1207): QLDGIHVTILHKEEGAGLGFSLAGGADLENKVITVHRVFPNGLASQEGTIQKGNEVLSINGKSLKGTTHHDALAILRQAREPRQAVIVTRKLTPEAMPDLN
Chain of GRIP2_7, Q9C0E4 (Q9C0E4 934-1023): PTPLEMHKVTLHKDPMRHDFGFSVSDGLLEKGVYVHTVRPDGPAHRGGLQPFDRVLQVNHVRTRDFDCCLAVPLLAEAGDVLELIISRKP
Chain of MAST2, Q6P0Q8 (Q6P0Q8 1099-1202): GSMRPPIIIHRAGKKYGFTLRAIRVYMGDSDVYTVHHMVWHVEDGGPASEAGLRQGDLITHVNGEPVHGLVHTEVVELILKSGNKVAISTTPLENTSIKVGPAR
Chain of FRMPD4, Q14CM0 (Q14CM0 67-160): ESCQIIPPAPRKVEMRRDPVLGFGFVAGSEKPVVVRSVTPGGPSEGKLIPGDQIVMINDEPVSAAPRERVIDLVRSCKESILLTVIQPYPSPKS
Chain of SCRIB_1, Q14160 (Q14160 718-814): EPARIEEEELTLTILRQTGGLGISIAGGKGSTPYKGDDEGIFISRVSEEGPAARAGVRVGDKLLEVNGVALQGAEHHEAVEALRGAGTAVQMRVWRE
Chain of MAGI2_4, Q86UL8 (Q86UL8 772-865): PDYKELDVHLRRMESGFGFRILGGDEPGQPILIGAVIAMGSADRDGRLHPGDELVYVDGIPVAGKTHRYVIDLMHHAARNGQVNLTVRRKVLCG
Chain of LNX1_2, Q8TBB1 (Q8TBB1 371-470): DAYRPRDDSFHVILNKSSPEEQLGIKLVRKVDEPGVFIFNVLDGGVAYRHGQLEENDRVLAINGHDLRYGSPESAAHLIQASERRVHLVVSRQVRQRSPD
Chain of GRASP, Q7Z6J2 (Q7Z6J2 96-193): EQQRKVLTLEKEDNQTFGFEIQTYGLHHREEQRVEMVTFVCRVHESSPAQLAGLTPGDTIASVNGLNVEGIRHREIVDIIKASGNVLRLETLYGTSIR
Chain of MAGI2_6, Q86UL8 (Q86UL8 1141-1229): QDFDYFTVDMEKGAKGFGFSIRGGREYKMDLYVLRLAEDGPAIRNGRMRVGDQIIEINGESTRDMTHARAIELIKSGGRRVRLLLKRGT
Chain of HTRA1, Q92743 (Q92743 360-477): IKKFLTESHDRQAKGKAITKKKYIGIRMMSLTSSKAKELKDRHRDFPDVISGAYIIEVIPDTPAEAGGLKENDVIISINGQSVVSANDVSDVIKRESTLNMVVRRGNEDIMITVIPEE
Chain of DLG2_2, Q15700 (Q15700 189-283): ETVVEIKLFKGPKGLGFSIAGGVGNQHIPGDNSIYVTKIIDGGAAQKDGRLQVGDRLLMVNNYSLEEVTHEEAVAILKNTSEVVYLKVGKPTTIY

pKd (APBA1_1, Q02410; [1]): below the threshold
pKd (APBA2_2, Q99767; [1]): below the threshold
pKd (DFNB31_2, Q9P202; [1]): 3.62
pKd (DFNB31_3, Q9P202; [1]): 3.71
pKd (DLG2_2, Q15700): 3.55
pKd (DLG3_1, Q92796; [1]): below the threshold
pKd (FRMPD1, Q5SYB0; [1]): below the threshold
pKd (FRMPD4, Q14CM0; [1]): below the threshold
pKd (GORASP2, Q9H8Y8; [1]): 3.82
pKd (GRASP, Q7Z6J2): 4.72
pKd (GRIP2_7, Q9C0E4; [1]): 3.55
pKd (HTRA1, Q92743): 4.27
pKd (HTRA4, P83105; [1]): 3.62
pKd (IL16_3, Q14005; [1]): below the threshold
pKd (LIN7A, O14910; [1]): below the threshold
pKd (LNX1_2, Q8TBB1; [1]): 3.77
pKd (MAGI1_1, Q96QZ7; [1]): below the threshold
pKd (MAGI2_4, Q86UL8; [1]): 3.64
pKd (MAGI2_6, Q86UL8): 4.07
pKd (MAST2, Q6P0Q8; [1]): 5.24
pKd (MPP2, Q14168; [1]): below the threshold
pKd (PARD3B_1, Q8TEW8; [1]): 3.72
pKd (SCRIB_1, Q14160; [1]): 4.83
pKd (SNTA1, Q13424; [1]): 4.04
Binder: DEDQHTQITKV [PTEN, P60484]

pKd (APBA1_1, Q02410; [2]): below the threshold
pKd (APBA2_2, Q99767; [2]): below the threshold
pKd (DFNB31_2, Q9P202; [2]): below the threshold
pKd (DFNB31_3, Q9P202; [2]): below the threshold
pKd (DLG3_1, Q92796; [2]): below the threshold
pKd (FRMPD1, Q5SYB0; [2]): below the threshold
pKd (FRMPD4, Q14CM0; [2]): below the threshold
pKd (GORASP2, Q9H8Y8; [2]): below the threshold
pKd (GRIP1_2, Q9Y3R0; [2]): below the threshold
pKd (GRIP2_7, Q9C0E4; [2]): below the threshold
pKd (HTRA4, P83105; [2]): below the threshold
pKd (IL16_3, Q14005; [2]): below the threshold
pKd (LIN7A, O14910; [2]): below the threshold
pKd (LNX1_2, Q8TBB1; [2]): below the threshold
pKd (MAGI1_1, Q96QZ7; [2]): below the threshold
pKd (MAGI2_4, Q86UL8; [2]): below the threshold
pKd (MAST2, Q6P0Q8; [2]): 4.21
pKd (MPP2, Q14168; [2]): below the threshold
pKd (PARD3B_1, Q8TEW8; [2]): below the threshold
pKd (SCRIB_1, Q14160; [2]): below the threshold
pKd (SNTA1, Q13424; [2]): below the threshold
Binder: LCKSHAFSHV [PDLIM7, Q9NR12;Q9NR12-1]

pKd (APBA1_1, Q02410; [1]): below the threshold
pKd (APBA2_2, Q99767; [1]): below the threshold
pKd (DFNB31_2, Q9P202; [1]): below the threshold
pKd (DFNB31_3, Q9P202; [1]): below the threshold
pKd (DLG2_2, Q15700): 4.19
pKd (DLG3_1, Q92796; [1]): 3.49
pKd (FRMPD1, Q5SYB0; [1]): below the threshold
pKd (FRMPD4, Q14CM0; [1]): 3.49
pKd (GORASP2, Q9H8Y8; [1]): 3.58
pKd (GRASP, Q7Z6J2): below the threshold
pKd (GRIP1_2, Q9Y3R0; [1]): 3.65
pKd (GRIP2_7, Q9C0E4; [1]): below the threshold
pKd (HTRA1, Q92743): below the threshold
pKd (HTRA4, P83105; [1]): below the threshold
pKd (IL16_3, Q14005; [1]): below the threshold
pKd (LIN7A, O14910; [1]): below the threshold
pKd (LNX1_2, Q8TBB1; [1]): below the threshold
pKd (MAGI1_1, Q96QZ7; [1]): below the threshold
pKd (MAGI2_4, Q86UL8; [1]): below the threshold
pKd (MAGI2_6, Q86UL8): 4.95
pKd (MAST2, Q6P0Q8; [1]): 5.52
pKd (MPP2, Q14168; [1]): below the threshold
pKd (PARD3B_1, Q8TEW8; [1]): below the threshold
pKd (SCRIB_1, Q14160; [1]): 4.76
pKd (SNTA1, Q13424; [1]): 5.34
Binder: CLDTSRETDL [KCNA5, P22460]
